According to the supplement of paper PMC10126150:
± gives the standard deviation of the averaged measurements.

tested on: ATP; test: switch fluorescence ratio, 500 uM ATP over buffer (Cy3 cluster intensity, sum of 5 cycles each) (fold (ratio)); higher = stronger signal-on switching upon ATP binding; sequences stand for … in TCGTCGGCAGCGTCAGATGTGTATAAGAGACAGTTTTTTTTTTTTTTTTTTTTTTTTT…TC; details: aptamer strand: ATP DNA aptamer (quencher-CACCTGGGGGAGTATTGCGGAGGAAGG + anchor), 100 nM annealed; ATP concentration: 500 uM
Outline: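 The fluorescence ratio divides summed target-cycle Cy3 intensity by summed buffer-cycle Cy3 intensity for each cluster and is averaged per switch-domain sequence. Cy3-labelled switching-strand clusters on a modified Illumina MiSeq flow-cell were annealed to 100 nM quencher-labelled ATP aptamer, then imaged in selection buffer and again after 15 min with 500 uM ATP at 22 °C. Five such cycles were run, with NaOH stripping and re-annealing between them, and clusters outside 100-1000 RFU were excluded.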
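Note: ATP exposure 15 min at 22 °C before imaging.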

| Sequence | switch fluorescence ratio |
| --- | --- |
| GGTGTGGATC | 1.021 ± 0.0029 |
| CAGTTAAGTA | 0.973 ± 0.028 |
| TATATGATGG | 0.982 ± 0.024 |
| TTGGAGGGAG | 0.999 ± 0.043 |
| AATTTTGGTT | 0.99 ± 0.017 |
| TGGCTTTTGT | 1.44 ± 0.63 |
| CGTGCAGGGT | 1.03 ± 0.052 |
| AGTCGAGCGT | 0.9976 ± 0.0034 |
| GGATGAAGGG | 0.981 ± 0.022 |
| GACGTTCATA | 1.083 ± 0.0089 |
| TTGTTTTGTA | 0.992 ± 0.024 |
| GACGCGCGTA | 1.01 ± 0.027 |
| AGGGAAGAAC | 1.006 ± 0.0073 |
| AGAAATAGGA | 1.01 ± 0.035 |
| TTGGGGCGGG | 1.01 ± 0.039 |
| TCCGGTACTG | 1.16 ± 0.074 |
| GGGGTTCCGC | 1.05 ± 0.026 |
| GACGTAAGTT | 1.02 ± 0.018 |
| TTGCTCTGGG | 0.974 ± 0.019 |
| TTTCGTATCG | 1.01 ± 0.021 |
| GAGTAGTGTT | 0.984 ± 0.02 |
| CATAGGGGCG | 0.984 ± 0.023 |
| TCCGGCTGGT | 0.976 ± 0.024 |
| TTGGGGGGTC | 1 ± 0.034 |
| AACGTCTGGA | 0.9725 ± 0.0037 |

| Sequence | switch fluorescence ratio |
| --- | --- |
| CAGGACCCGA | 0.99 ± 0.025 |
| CTTAGAGCGG | 1.01 ± 0.022 |
| AGTCGGGCGT | 1 ± 0.046 |
| TAAGGCGGAG | 0.9951 ± 0.0032 |
| TAATCGCCAA | 1.05 ± 0.0039 |
| AAACATTTCA | 0.976 ± 0.063 |
| CTTAGGATAG | 0.996 ± 0.0029 |
| CTATTATTCT | 0.983 ± 0.018 |
| CTCGGAACTA | 1.04 ± 0.03 |
| ATCCGCTAGT | 2.16 ± 0.19 |
| CGTAGACTTG | 0.9736 ± 0.005 |
| TGACTAAACA | 1.056 ± 0.0059 |
| TTTTGTCAAG | 1.01 ± 0.033 |
| GTTTCGTAAT | 1.084 ± 0.0038 |
| AGAGTTTCTT | 0.981 ± 0.038 |
| ATCTATTATT | 1.012 ± 0.006 |
| ATTACGGGAT | 1.01 ± 0.062 |
| AAACTTGTAC | 1.1 ± 0.036 |
| TCACTTCAAT | 1.033 ± 0.0099 |
| GTTGGTATTG | 1 ± 0.021 |
| AAAAGAATGG | 0.971 ± 0.043 |
| TTCGGGAACT | 1 ± 0.038 |
| TTTATTTCTG | 0.959 ± 0.02 |
| GGGGCTACTA | 1.01 ± 0.014 |
| CCGTCTACGC | 1.16 ± 0.048 |

| Sequence | switch fluorescence ratio |
| --- | --- |
| GGGAATCGGC | 1 ± 0.032 |
| CAATGGTTTG | 1 ± 0.018 |
| AGGGACGCGC | 1.07 ± 0.018 |
| TGGTCGTCGG | 0.985 ± 0.037 |
| TCTGAGGTGC | 1.06 ± 0.046 |
| CGTGCAGTTC | 1.15 ± 0.036 |
| CCAGAGGGTG | 1.45 ± 0.52 |
| GGTAATGGTA | 0.9702 ± 0.0045 |
| CACTGGAAAA | 1.04 ± 0.036 |
| GAGACAGTTA | 0.992 ± 0.014 |
| GTGCGTTTGG | 0.971 ± 0.022 |
| TCGGTGTTCA | 1 ± 0.011 |
| AAAAGACGG | 1 ± 0.062 |
| GATAGACGGT | 1.01 ± 0.047 |
| ACTACAGCTC | 1.15 ± 0.021 |
| TATTGGGGGG | 0.999 ± 0.025 |
| CACGAAGACC | 1.197 ± 0.0068 |
| AAGTGGGGGA | 1.02 ± 0.015 |
| TGGTTAATGC | 1.48 ± 0.1 |
| GGCAGAGTTC | 0.991 ± 0.013 |
| GGTTTAGTGG | 1 ± 0.031 |
| TTTTGGCCTA | 1.01 ± 0.029 |
| TGGGGTGCAT | 0.993 ± 0.051 |
| GGCCTAAATT | 0.989 ± 0.031 |
| GGATGATGCA | 1.03 ± 0.028 |

| Sequence | switch fluorescence ratio |
| --- | --- |
| TAACATCTGT | 0.975 ± 0.021 |
| CATCTGGGCA | 1.03 ± 0.013 |
| AATCAAGTAG | 0.9821 ± 0.0086 |
| TTGTGAATAT | 1 ± 0.044 |
| TAGATCAAG | 1.04 ± 0.028 |
| TTAAGCAATT | 1.36 ± 0.047 |
| TGCCTTTTCG | 1.02 ± 0.057 |
| ATAGGGAATT | 1 ± 0.024 |
| AACAGATGGA | 1.16 ± 0.3 |
| GAAAAAATTT | 1.031 ± 0.0019 |
| GTGTGACAAA | 1 ± 0.037 |
| ATCATTCTTC | 0.977 ± 0.034 |
| CAAATGGAAG | 0.998 ± 0.028 |
| TCGGTTGAAG | 0.988 ± 0.017 |
| TAGAAAGGGC | 1.01 ± 0.08 |
| CCCCTTTATT | 1.01 ± 0.057 |
| GGTATACGTA | 0.935 ± 0.071 |
| CTTGTTGAGG | 0.988 ± 0.012 |
| AGGGGCTAGG | 0.983 ± 0.033 |
| GGGGTACTAG | 0.9981 ± 0.0071 |
| TCGAATTTTT | 1.02 ± 0.07 |
| AAGTTGTTAT | 0.986 ± 0.045 |
| AGTGGTGGGT | 1.01 ± 0.035 |
| TAGCGGGCGT | 0.964 ± 0.026 |
| TCTACTTTAC | 1.39 ± 0.15 |
